According to patent publication US20120201794A1:

Columns and labels:
[1] = molecular target: C46 protein (membrane anchored fusion inhibitor derived from the C-terminal heptad repeat of HIV gp41 fused with a human immunoglobulin hinge region and a CD34 transmembrane domain) (HIV gp41 heptad repeat fused to human immunoglobulin hinge and CD34 transmembrane domain); test: flow cytometry, 2F5 staining of Molt4/CCR5 cells transduced with the C46 lentiviral construct (untransduced background 344.6)
[2] = molecular target: C46 protein (membrane anchored fusion inhibitor derived from the C-terminal heptad repeat of HIV gp41 fused with a human immunoglobulin hinge region and a CD34 transmembrane domain) (HIV gp41 heptad repeat fused to human immunoglobulin hinge and CD34 transmembrane domain); test: flow cytometry, 2F5 staining of Molt4/CCR5 cells transduced with the sh5/C46 lentiviral construct (untransduced background 344.6)

**Q.** 2F5 antibody was tested. Which MFI [1] did it give?
**A.** Its MFI is 1450.

**Q.** And the MFI [2]?
**A.** Its MFI is 1170.
